Test results as given in ChEMBL document CHEMBL2074147, “Monoamine neurotransmitter transport mediated by the polyspecific cation transporter rOCT1” (FEBS Lett, 1996).
Where “and” joins values, the source holds several entries; their conditions need not be identical. Equal values may be shown once.

Tests used:
[1] = target: T1, Solute carrier family 22 member 1 (Rattus norvegicus, UniProt Q63089); experiment: TP_TRANSPORTER: uptake in Xenopus laevis oocytes; format: functional, cell-based; settings: oocyte
T1 sequence (Q63089 whole entry): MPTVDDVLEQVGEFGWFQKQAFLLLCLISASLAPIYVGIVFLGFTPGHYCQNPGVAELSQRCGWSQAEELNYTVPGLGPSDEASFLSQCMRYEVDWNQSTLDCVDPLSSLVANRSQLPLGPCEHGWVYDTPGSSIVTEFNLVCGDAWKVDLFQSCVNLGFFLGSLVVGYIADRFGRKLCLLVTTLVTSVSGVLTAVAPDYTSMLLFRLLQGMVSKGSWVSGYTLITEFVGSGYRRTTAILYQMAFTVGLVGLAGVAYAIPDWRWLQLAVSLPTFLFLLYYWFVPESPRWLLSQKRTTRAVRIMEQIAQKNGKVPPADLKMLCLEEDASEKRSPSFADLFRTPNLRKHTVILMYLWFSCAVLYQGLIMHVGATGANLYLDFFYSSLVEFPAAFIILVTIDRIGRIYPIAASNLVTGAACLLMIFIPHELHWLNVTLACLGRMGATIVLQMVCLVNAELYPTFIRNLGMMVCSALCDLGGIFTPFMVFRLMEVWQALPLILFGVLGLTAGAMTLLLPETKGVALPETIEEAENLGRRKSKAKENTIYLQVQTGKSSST

[2] = target: T1, Solute carrier family 22 member 1; experiment: (§1) TP_TRANSPORTER: uptake (electrogenesis) in Xenopus laevis oocytes; format: functional, cell-based; settings: oocyte
[3] = substrate: NCCc1ccc(O)c(O)c1; experiment: cells, lysate or membranes named
[4] = substrate: NCCc1c[nH]cn1; experiment: cells, lysate or membranes named
[5] = substrate: NCCc1c[nH]c2ccc(O)cc12; experiment: as §1; format: functional, cell-based, Oocyte
[6] = substrate: CC(=O)OCC[N+](C)(C)C; experiment: as §1; format: functional, cell-based, Oocyte

## C=C[C@H]1C[N@@]2CC[C@H]1C[C@H]2[C@H](O)c1ccnc2ccc(OC)cc12 [QUININE]
[1]
  Activity: is not a substrate [-]

## NC[C@H](O)c1ccc(O)c(O)c1 [NOREPINEPHRINE]
[2]
  Activity: substrate [+]

## C=C[C@H]1C[N@@]2CC[C@H]1C[C@@H]2[C@@H](O)c1ccnc2ccc(OC)cc12 [QUINIDINE]
[1]
  Activity: is not a substrate [-]

B1: Solute carrier family 22 member 1 (Rattus norvegicus) (protein)
chain: T1 sequence (Q63089 whole entry)
[3]
  Km: 19.4 µM and 51 µM
[4]
  Km: 98.6 µM
[5]
  Km: 37.6 µM
[6]
  Km: 46.8 µM
